Data as given in the supplement of paper PMC10567573.

B1: APBB1IP (parent)
chain: SQVSMWDQRWQDHQPLLPITDVP

Variants of: B1
Test: protein stability index of a GFP-peptide fusion (GPS, HEK-293T) (PSI 1-6); higher = more stable
Conditions: c terminus: native
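Also: lentivirally expressed fusions sorted by FACS into six bins by GFP to DsRed ratio, PSI derived from sequencing read proportions per bin multiplied by bin number.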

Protein stability index: each site, then its substitutions
T20: C 2.34 | A 2.33 | H 2.37 | I 1.79 | V 1.65 | R 2.32 | K 3.24 | M 2.04 | S 3.27 | L 1.92 | Q 2.61 | G 1.77 | F 2.58 | D 2.67 | P 2.7 | Y 1.88 | N 3.23
L17: P 2.84 | Y 2.19 | C 2.06 | T 2.58 | I 1.85 | Q 2.59 | M 2.17 | R 2.26 | D 3.79 | V 2.71 | F 2.06 | W 2.96 | S 2.34 | K 3.67 | G 3.81 | H 3.2 | E 3.68 | A 3.32 | N 3.1
P15: V 1.55 | N 2.77 | T 1.93 | E 2.77 | M 1.82 | D 4.41 | L 2.06 | Q 3.25 | F 2.2 | S 3.35 | Y 2.27 | H 2.07 | G 3.45 | C 2.18 | I 2.03 | A 2.23 | W 1.43 | K 2.82
P23: H 2.58 | S 3.01 | D 3.6 | A 2.56 | K 2.03 | M 1.19 | R 4.33 | C 2.85 | T 2.01 | I 2.48 | F 2.21 | Y 2.74 | W 2.17 | L 2.06 | E 2.9 | Q 1.61 | G 1.91 | N 1.81
Q14: Y 2.06 | H 2.67 | S 2.38 | L 2 | T 2.48 | V 2.23 | N 2.89 | M 2.15 | R 1.86 | W 2.23 | I 2.09 | K 2.28 | P 2.74
I19: N 3.55 | V 2.17 | G 3.67 | L 2.03 | A 2.67 | M 2.62 | C 2.15 | S 3 | E 3.36 | H 3.78 | F 2.79 | Q 2.87 | T 3.03 | K 4.04 | P 3.04 | R 3.17 | W 1.36 | D 4.17 | Y 2.84
L16: D 3.42 | E 3.38 | T 2.92 | M 2.53 | S 2.98 | P 2.38 | K 3.08 | R 2.61 | F 3.4 | G 3.07 | V 2.54 | N 3.54 | I 2.55 | A 2.95 | C 2.83 | W 2.23 | Q 2.73 | Y 3.06
D21: K 2.44 | P 2.07 | F 1.44 | G 1.94 | Y 1.65 | H 1.75 | M 1.62 | T 2.88 | Q 1.53 | N 1.7 | S 1.6 | A 2.56 | W 1.63 | C 5.18 | E 1.77
P18: A 2.91 | Q 1.71 | M 1.71 | H 2.38 | E 2.55 | R 2.29 | T 1.31 | S 2.12 | F 1.36 | G 1.76 | W 1.28 | Y 2.07 | N 2.56 | D 3.42 | K 2.1 | L 1.41 | C 1.82
V22: F 2.72 | Y 1.91 | T 2.65 | A 2.31 | N 2.69 | M 2.53 | C 2.06 | R 2.99 | S 2.8 | I 2.19 | Q 2.98 | E 3.45 | K 3.37
